The record followed here is publication PMC11109203 (2024).

The labels stand for the following.
B1: FITC labeled Clr3 (enzyme)
chain: MLASNSDGASTSVKPSDDAVNTVTPWSILLTNNKPMSGSENTLNNESHEMSQILKKSGLCYDPRMRFHATLSEVDDHPEDPRRVLRVFEAIKKAGYVSNVPSPSDVFLRIPAREATLEELLQVHSQEMYDRVTNTEKMSHEDLANLEKISDSLYYNNESAFCARLACGSAIETCTAVVTGQVKNAFAVVRPPGHHAEPHKPGGFCLFNNVSVTARSMLQRFPDKIKRVLIVDWDIHHGNGTQMAFYDDPNVLYVSLHRYENGRFYPGTNYGCAENCGEGPGLGRTVNIPWSCAGMGDGDYIYAFQRVVMPVAYEFDPDLVIVSCGFDAAAGDHIGQFLLTPAAYAHMTQMLMGLADGKVFISLEGGYNLDSISTSALAVAQSLLGIPPGRLHTTYACPQAVATINHVTKIQSQYWRCMRPKHFDANPKDAHVDRLHDVIRTYQAKKLFEDWKITNMPILRDSVSNVFNNQVLCSSNFFQKDNLLVIVHESPRVLGNGTSETNVLNLNDSLLVDPVSLYVEWAMQQDWGLIDINIPEVVTDGENAPVDILSEVKELCLYVWDNYVELSISKNIFFIGGGKAVHGLVNLASSRNVSDRVKCMVNFLGTEPLVGLKTASEEDLPTWYYRHSLVFVSSSNECWKKAKRAKRRYGRLMQSEHTETSDMMEQHYRAVTQYLLHLLQKARPTSQ
modifications: FITC label

Test [1] concerns the target Sad1_(1-169)-H2AB complex (S. pombe, UniProt Q09825 1-169; P04913 32-126; P04909 15-108). Put plainly: MST; mixture of Sad1 and H2AB.
A further test concerns the target Sad1_(1-169)-5R (S. pombe, UniProt Q09825 1-169, D114R | E117R | F118R | E121R | E122R). As to the kind of experiment: MST; mixture of Sad1-5R and H2AB.
The test “FITC labeled Clr3” concerns the target B1. As to the kind of experiment: MST.
The target in another test is H2AB with H2A R79E (S. pombe, UniProt P04913 32-126; P04909 15-108, R79E). As to the kind of experiment: ITC. (In general: ITC needs no label: the signal is the heat of the interaction.)
A further test has as its target H2AB with H2B Y42R (S. pombe, UniProt P04913 32-126; P04909 15-108, Y42R). As to the kind of experiment: ITC.
Test [2] concerns the target S. pombe H2AB fusion protein (H2B_(32-126)-H2A_(15-108)) (S. pombe, UniProt P04913 32-126; P04909 15-108). Put plainly: ITC.

Regarding B1, the equilibrium dissociation constant (Kd) in test [1] was found to be 10.3 µM; with Sad1_(1-169)-5R it was 47.2 µM.

B2: Sad1_(1-169) (domain or fragment)
chain: MFTNTPVGGKRERQNGAHPAWSTLGANSAQIHQNTADLASKMHKLRYTKIRSPPTRVSIESITPKQRFPAPNFEQAYHSNIRYEQEESDNEEFENVVKNGHEASTNVFYESDGDDEEFVNEEYENSIDEESDDEGYSLNEDTTATNASFRYPMNQRSTRKSQFYSSKFK
With B2, binding in the test with FITC labeled Clr3 was characterised by a dissociation constant (Kd) of 42.9 µM.

B3: Sad1_(60-169) (domain or fragment)
chain: ESITPKQRFPAPNFEQAYHSNIRYEQEESDNEEFENVVKNGHEASTNVFYESDGDDEEFVNEEYENSIDEESDDEGYSLNEDTTATNASFRYPMNQRSTRKSQFYSSKFK
On to B3, for which the Kd in the test with H2AB with H2A R79E is 90.1 µM; with H2AB with H2B Y42R it was 44.8 µM; in test [2] it was 9.1 µM.

B4: Sad1_(60-169) with charge-reverse mutations of D114 and E117 (domain or fragment)
chain: ESITPKQRFPAPNFEQAYHSNIRYEQEESDNEEFENVVKNGHEASTNVFYESDGRDERFVNEEYENSIDEESDDEGYSLNEDTTATNASFRYPMNQRSTRKSQFYSSKFK
In test [2], B4 yielded a Kd of 73.5 µM.

B5: Sad1_(60-169) F118R (domain or fragment)
chain: ESITPKQRFPAPNFEQAYHSNIRYEQEESDNEEFENVVKNGHEASTNVFYESDGDDEERVNEEYENSIDEESDDEGYSLNEDTTATNASFRYPMNQRSTRKSQFYSSKFK
In the case of B5, the Kd in test [2] was above 200 µM.

As a reminder, the Kd is the concentration at which binding is half-saturated.
